Assay: label from the status in PepcDB records

Sequence | protein production
MGNYMTYIVGLTGGIGSGKTTIANLFTDLGVPLVDADVVAREVVAKDSPLLSKIVEHFGAQILTEQGELNRAALRERVFNHDEDKLWLNNLLHPAIRERMKQKLAEQTAPYTLFVVPLLIENKLTALCDRILVVDVSPQTQLARSAQRDNNNFEQIQRIMNSQVSQQERLKWADDVINNDAELAQNLPHLQQKVLELHQFYLQQAENKNA | not failed
MAEERHHTEHIPQWKKDEIENIKELIQSHKVFGMVRIEGILATKIQKIRRDLKDVAVLKVSRNTLTERALNQLGESIPEMTRYLDNQTALIFTNESPFKLYKLLEQTKTPSPIKAGAIAPEDIIVQKGPTSFPPGPILGELQSAGIPASIDAGKVAVKETKVVCKAGEAVPQKLATMLSKLEIYPLIVGLDLRAAYDDGTIYEPELLAVDESKYFSDIIRAAQNAFNLSVNTAYPTGATIGTLLAKAYAESKSLGVNAVILEPGVMDSLLAKAHVQMTSVASEAAEKDANAVDDDLREVLGAAASAAAAATVAAPAAEEEKKEEEPEEEEEDHAEEDGMAGLGALFGLEHHHHHH | not failed
MTQQPRSTARTPASAEDPAAAAAHPPLAAPRPPAEHRVWPRTFHDRLTAPLPGLKAFARFAREGAVRPGPAGLADVPRLPCAPGPLPRVDARTVAVTWAGHASWVVRIGGLTVLTDPVWSRRILGTPPRVTPVGVPWSALPRVDAVVISHNHYDHLDAPTLRRLPRDTPVLVPAGLGRWFHRRRFTHVTELDWWEATELNGVRFDFVPAHHWSKRSLTDTCRTLWGGWVLTDPDGRRVYFAGDTGYGHWFTRIGRRYPGIDLALLPIGAYDPRWWLSDVHCDPEEAVRAAQDVGARRMAPMHWGTFVLSAEPVLEPLARVRAAWQQAGLPRERLWDLPIGASRVLE | failed
MKNRETDSNVVTLYVTRHGKTILNTNHRAQGWADSPLVEKGVEVATNLGTGLKDIHFMNAYSSDSGRAIETANLVLKYSEQSKLKLEQRKKLRELNFGIFEGEKLDNMWDAVGKAAGVTSPEELLKFSIQEVIDLIRAADPTKQAEDWELFSTRIKAEIDKISEEAAKDGGGNVLVVVHGLLITTLIEMLDSSKTKLGVENASVTKIVYQDGIYTVESVGDMSYVAKGKESVEI | not failed
MCSTNKNLACCKGDNVFDGQINGNESYPQVVNKQLPPKVLEPIIQNKIVEIPKEVYLEKIVEVPQIKTVERIVEQIRPVIKYKNVYKPKIVYVEKVKNVDKIIYQEKIVEVPQIKTVEKIVEVPVYVNRERIITVPRYMVVEKVIPVLKTSKRESIMEVPEVNCPHIDISKEVEDKEEIPINELKENQTISLADEKEIQILNDLTSQKVDSNATINMEGEQDTTVDTITQENFCGTVSCNFLPNYPNFSKIGNPLCKGGPEKEKRFSSISIYKSKDSGFPSIRIAKTPQMFQRNLYCSYA | failed
MGEEEAVAEENGGLKVESGEQKSSWPTMRFDVSPYRTHHFSKQFRTARNPNNFLKGLKWSPDGSCFLASSEDNTLSLFHLPQDGGDSNGYGVPVPEEDSYGASLLVNEGESVYDFCWYPYMSVSDPLTCVFATSTRDHPIHLWDSTSGELRCTYRAYDAMDEITAAFSVGFNPDGTKIFAGYNSSIRVFDLHRPGRDFRQYSTLQKNKEGQAGILSTLAFSPTNSGMLAVGSYGQTTGIYREDNMELLYVLHGQEGGVTHVQFSKDGNYLYTGGRKDPYILCWDIRKSVEIVYKLYRATENTNQRVFFDIEPCGRHLGTGGQDGLVHMYDLQTGNWVSGYQAASDTVNAFSFHPYLPMAATSSGHRRFAIPDDDDGEDKNELQLKADENCVSLWSFYVEDNTYDENNGVASESHLQNVTEEIVLT | failed
MRLKDLGERALLARLAPLGYPPEAPLPPGDDAGGVWAEGRAWLLKTDGFLYREVALKGMGPFEVGFRGVAATASDLLAKMGRPLGFTLGLFLPEDLEEGFVLELVRGAAEAAKRLGAFLLGGDTNRGVEVALTVSGYALAEAPLPRKALPGDLLYLAGDRWGRTGAAIRAHYEGRSLEGFPKIREAAFYPLPRLELLALSGLLRGSLDSSDGLAETLWQLADLGVGVEVEALPLYPDVLAFAGSEEAALELVLYGGEEFEAVLVVPQEGAAAVEARAKAKGLPLFRAGRVVAGEGVYLRGAPLPRKGYAHF | not failed
MVTFVLAITAISCLIWCFLLVGWGNFWRCDQVLNFDRPSTLQAYPSVAAIIPARDEASVLGQSLPSLLEQHYPGPLKIILVDDQSSDGTGAVAQRIASGLGHGDRLEVVSGQPLPPGWSGKLWAVEQGWQTVQLKKKGSDSWPEYIFLTDADIAHGPQTITALVEKAQRDNLALVSLMVLLRCESVWEKLLIPAFIFFFQKLYPFPLVNNPQRQTAAAAGGCILMQRSALQTIGGIGALKEALIDDCTLAQKVKAQKLPIWLGLTRANWSLRPYDSLETIWQMVSRTAYTQLNYNPLLLLGTLLGMALVYLTAPIALILAIIWGNAPLALLGAFTWMLMAIAYGPTLKFYGRSWLWGLTLPLIALLYSLMTLDSAWQHWRGQGGGWKGRIYPQGS | failed
MNYDMSSYFEDPEFKEALAKYEGMVENHTPAYFEADELIDIAEYYTLKGRHKDADKAIDLTLQLHPENTDALVFRIRSLMLQNKKEEAKVVAQLIANSTDRECRFLQADMLMEEDRIEEAEEIFKQLVMDEEYEVDTLLDIIQDYTNANQEEYAGQWVDCLFAHSDMQTLPKTNQRLRDVLCDYYSTFNKPDLAIPYLNMTLNEYPYSIEHWNELGKCHLQQCQYEEANEALDFALAIDDENTDSLTLKAFGYHQAGNLKESCDYYLRLANVSKNKTKAYLALAQIYLEMRDHASAISYIEKLINRKSGLTDYELAELYSDTALCHAYLGHTENGYKYINQALELNEHDAEIRIAAGRFFTIEAQKSDISEEEQENNLRNAEHQFTRALEFTPKEERFDVLFKIGSLYFDEHNFEYANQYFELINKEFPEDADATYFFLAYGYYHQQESASFMHYLAKIRKEIPDMYATMGTGDTILMTDTYFNEALRAIKEDVSTGKINLNKYL | failed
MAQVEAPVIGITVLYFLAIIIIGYYSRQRLKSATDYYVAGRQVGAVVNGLALESTYLSPASMLGLPAYIFILGYPFWWAMSAIIAGMPIATLLTASALRKYAPTSFADYYADRYNDQRLRWLVGIVTVIGAVLYITLSLVGMALFLLAVAKVPYIIGLIVGTIIVMLYVVWGGMIATSWNAAFQAFLMTVAAVIAAAVIVIKLGGLGGFYEAVLANNPKFWNTPSDPEPPHLLSGTWIAVIGWFFVWHYGFATMPYTVVRFFTTMDIKTARRSIFWCTLAAGIFYMALEIIGAASKLMIETGPMGGEGANAVKILQSYMAQYGVGGWTDYSMIAAVEALQNPWVLGILCAGGLAIAMSTAAGWVMVVNTLLTRDWGDMLLKSKFAKEKPVTLARIISVIFLIVGFLVAINPPGLVLDLSGWAFVVIISALGPGLVLGLWWKRATRAAMWTTAIVMTPLHLYAWLKAKLVLGHHAFFFLNDVLFGNAKALITPHQVWAIPVGFLLFIIVSLITKPVEEEAVQKYCVELTKEV | failed
MIMNKIKKILKFCTLKKYDTSSALGREQERYRIISLSVISSLISKILSLLSLILTVSLTLPYLGQERFGVWMTITSLGAALTFLDLGIGNALTNRIAHSFACGKNLKMSRQISGGLTLLAGLSFVITAICYITSGMIDWQLVIKGINENVYAELQHSIKVFVIIFGLGIYSNGVQKVYMGIQKAYISNIVNAIFILLSIITLVISSKLHAGLPVLIVSTLGIQYISGIYLTINLIIKRLIKFTKVNIHAKREAPYLILNGFFFFILQLGTLATWSGDNFIISITLGVTYVAVFSITQRLFQISTVPLTIYNIPLWAAYADAHARNDTQFIKKTLRTSLKIVGISSFLLAFILVVFGSEVVNIWTEGKIQVPRTFIIAYALWSVIDAFSNTFASFLNGLNIVKQQMLAVVTLILIAIPAKYIIVSHFGLTVMLYCFIFIYIVNYFIWYKCSFKKHIDRQLNIRG | failed
MSMKKQFALFSTLLLLGSSMPVGAFAEGNNLVAENSSVAETTAEATTAEATETTATSETTEATEESTTETESSTESSESATTESTETSGTETTDSTTDSTSTSTTESTTDSTSTSTTESTTDSTSTSTTESSTTPTTTPSSSKEQPKPGTSTSESKQPAKPVTPTAPAEKPVEQPAASTPQPEIVPPVTNETVGLVEDDETFTVSKTKKTEEFIQEIGESARKVAKDKNLYASVMIAQAILESGSGNSKLSQKPNYNLFGIKGDYKGQSVSFITYEDNGFGNLYTVEAKFRQYPTYKESMEDYAKLLKNGLDSNKDFYHGVWKTEAKSYKEATRFLTGKYATDKDYHKKLNALIKTYDLTYYDKEKATVEPMESNFPAYNGKNYDTFNSYAWGNCTQYVYNRITQLGKRVDLTMGNGQDWGETGRARGYKVSRTPKAGAAVSFPAGVLGADNTYGHVAFVEKVFKDGSILISEMNVKGLNVVSTRTISADETHLMNYIVPKDK | failed

Source: a protein production outcome set (Wang et al. 2014)
